The supplement of paper PMC7877785
± gives the uncertainty stated by the source.

Assay: self-splicing fitness, log relative to wild type (ln ratio); higher = more splicing; Tetrahymena group I intron in knt gene, E. coli kanamycin selection, DiMSum; sequences stand for … in CUCUCU…GGAGGGAAAAGUUAUCAGGCAUGCACCUGGUAGCUAGUCUUUAAACCAAUAGAUUGCAUCGGUUUAAAAGGCAAGACCGUCAAAUUGCGGGAAAGGGGUCAACAGCCGUUCAGUACCAAGUCUCAGGGGAAACUUUGAGAUGGCCUUGCAAAGGGUAUGGUAAUAAGCUGACGGACAUGGUCCUAACCACGCAGCCAAGUCCUAAGUCAACAGAUCUUCUGUUGAUAUGGAUGCAGUUCACAGACUAAAUGUCGGUCGGGGAAGAUGUAUUCUUCUCAUAAGAUAUAGUCGGACCUCUCCUUAAUGGGAGCUAGCGGAUGAAGUGAUGCAACACUGGAGCCGCUGGGAACUAAUUUGUAUGCGAAAGUAUAUUGAUUAGUUUUGGAGUACUCGUGGUCG
Outline: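 Pooled colonies went to amplicon sequencing on an Illumina HiSeq 2500 after six replicate transformations. The plates were LB agar with 100 μg/mL carbenicillin, 50 μM IPTG and 0.2% rhamnose, with or without 25 μg/mL kanamycin, incubated overnight at 37°C or 30°C. The E. coli BL21(DE3) library had all eight P1ex-region intron nucleotides randomised, the intron placed in the knt kanamycin-resistance gene on pET-22b(+). DiMSum fitness is the error-weighted combination of replicate fold changes, kanamycin against none, normalised to wild type.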

Sequence | self-splicing fitness (ln) (30 °C) | self-splicing fitness (ln) (37 °C)
UGUGAGCAAUAUUACGAGCA | -0.913 ± 0.16 | -0.797 ± 0.21
UUACAGCAAUAUUACGCUGC | -2.9 ± 0.35 | –
CGGAAGCAAUAUUACGUUAU | -3.02 ± 0.21 | -2.3 ± 0.28
CCCGAGCAAUAUUACGCAAG | -2.73 ± 0.27 | –
GAGGAGCAAUAUUACGGGUU | -1.74 ± 0.14 | -2.23 ± 0.22
ACGAAGCAAUAUUACGGGGC | -3.36 ± 0.14 | -2.76 ± 0.16
CCCGAGCAAUAUUACGCAUG | -3.7 ± 0.15 | -2.64 ± 0.15
UUGGAGCAAUAUUACGAAUA | – | -2.1 ± 0.46
AGCCAGCAAUAUUACGGCGA | -1.33 ± 0.095 | -0.342 ± 0.11
GAGUAGCAAUAUUACGAGUC | -3.59 ± 0.34 | -1.48 ± 0.27
GCUUAGCAAUAUUACGAAGA | 0.387 ± 0.24 | -0.855 ± 0.15
AUAGAGCAAUAUUACGUUCC | -2.27 ± 0.22 | -1.53 ± 0.23
AGGUAGCAAUAUUACGCUCA | -0.609 ± 0.017 | -0.196 ± 0.035
CUAGAGCAAUAUUACGAGGA | -2.99 ± 0.2 | -2.53 ± 0.28
UUUGAGCAAUAUUACGUAAU | -3.94 ± 0.43 | -1.65 ± 0.23
AGACAGCAAUAUUACGGUUC | -3.34 ± 0.18 | -1.05 ± 0.13
AGCUAGCAAUAUUACGAAGC | -3.35 ± 0.22 | -2.43 ± 0.3
UCAAAGCAAUAUUACGUCGA | -0.83 ± 0.077 | -0.792 ± 0.081
AGCUAGCAAUAUUACGUUCA | -1.59 ± 0.12 | -0.979 ± 0.15
UAUAAGCAAUAUUACGUUUA | -1.03 ± 0.1 | -0.548 ± 0.11
CUAUAGCAAUAUUACGGUUU | -3.72 ± 0.12 | -2.58 ± 0.17
UUUAAGCAAUAUUACGUACA | -0.498 ± 0.12 | 0.0487 ± 0.14
AGUAAGCAAUAUUACGGCUU | -0.592 ± 0.086 | -0.0743 ± 0.11
UGGGAGCAAUAUUACGUGUU | -3.63 ± 0.23 | -2.91 ± 0.34

Sequence | self-splicing fitness (ln) (30 °C) | self-splicing fitness (ln) (37 °C)
UCCCAGCAAUAUUACGAGCC | -2.16 ± 0.28 | -1.96 ± 0.31
GCUCAGCAAUAUUACGUGAG | -4.29 ± 0.25 | -3.23 ± 0.2
GUAUAGCAAUAUUACGAGUG | -2.23 ± 0.15 | -2.47 ± 0.22
GCGUAGCAAUAUUACGUCCG | -2.52 ± 0.26 | -1.48 ± 0.21
GCAUAGCAAUAUUACGCGGC | -3.32 ± 0.33 | -2.38 ± 0.34
UGCAAGCAAUAUUACGAAUU | -2.91 ± 0.14 | -3.01 ± 0.23
AACGAGCAAUAUUACGGUCG | -2.14 ± 0.13 | -1.02 ± 0.14
UCCUAGCAAUAUUACGCGGU | -2.34 ± 0.17 | -1.63 ± 0.18
UGGGAGCAAUAUUACGGUCU | -4.3 ± 0.32 | -2.09 ± 0.22
AGAAAGCAAUAUUACGACCG | -0.595 ± 0.15 | 0.0491 ± 0.17
AUGAAGCAAUAUUACGUGCA | -0.0826 ± 0.093 | 0.364 ± 0.11
UGACAGCAAUAUUACGAGAG | -3.08 ± 0.14 | -1.75 ± 0.11
ACCGAGCAAUAUUACGCGAG | -2.75 ± 0.19 | -2.06 ± 0.15
CAGCAGCAAUAUUACGCACC | -2.66 ± 0.29 | -1.32 ± 0.47
CGGAAGCAAUAUUACGCCUA | -1.72 ± 0.21 | -0.963 ± 0.18
CACCAGCAAUAUUACGGAUC | -1.96 ± 0.08 | -1.32 ± 0.094
GCGAAGCAAUAUUACGAGUC | -2.93 ± 0.13 | -2.33 ± 0.21
CUUAAGCAAUAUUACGUAUA | -2.9 ± 0.23 | -3.19 ± 0.29
CCGCAGCAAUAUUACGAUUA | -3.03 ± 0.23 | -2.72 ± 0.29
GAUUAGCAAUAUUACGAAUC | -4.13 ± 0.37 | -1.82 ± 0.31
UCCAAGCAAUAUUACGCCGG | -1.53 ± 0.11 | -0.578 ± 0.14
UACCAGCAAUAUUACGAUAG | -1.1 ± 0.067 | 0.0475 ± 0.097
CGCUAGCAAUAUUACGUUGG | -4 ± 0.23 | -2.24 ± 0.19
AAUCAGCAAUAUUACGAGGC | -3.28 ± 0.25 | -2.47 ± 0.23
